Measurements: patent publication US20070202116A1, “Treatment of micro-organism infection” (priority 2001, published 2007)
Like-named read-outs stand apart in the source and are kept apart here.

Assays:
[1] = tested on: EMRSA strains, vancomycin resistant subpopulations, Linzolid resistant strains; experiment: Checkerboard MIC / FIC / FIX of vancomycin and Aurograb (Tables 9, 10); assay type: cell-based, S. aureus; conditions: for MIC In combination: VAN with Aurograb
Experimental: In order to determine the Minimum Inhibitory Concentration (MIC), the Fractional Inhibitory Concentration (FIC) and the FIX (fractional inhibitory index), the following was method was used.
The cells were diluted in Isosensitest Broth (Oxoid, UK) to give a final inoculum of […] cells per mL. […] To this was added exogenous Aurograb in the range 0.3-25 μg/ml in a checkerboard formation. A negative control series was also prepared containing Aurograb formulation buffer alone. Cultures were incubated for 48 hours at 37° C.
The minimum inhibitory concentration (MIC) was defined as the lowest concentration of agent at which no bacterial growth occurred and was determined by spectrophotometric evaluation of the lack of turbidity (growth) in culture.
Fractional inhibitory concentrations (FIC) and FIX values were calculated. Synergistic activity between the two agents was defined as an FIX value ≦0.5. Indifferent activity was defined as a value of 0.5-4, and a value of ≧4 defined antagonism.
The MIC (Alone) column indicates the minimum inhibitory concentration of the agent when administered alone. The MIC (In combination) column indicates the minimum inhibitory concentration of each drug when used in combination.

[2] = Storage stability and iv fluid compatibility of Aurograb; assay type: physicochemical
Experimental: The lyophilised drug is stored in glass vials at 4° C. in the dark. Overnight transport at ambient temperatures is acceptable. Avoid prolonged exposure to bright light or excessive humidity. No change in Aurograb activity after storage at 4° C. (3 months) has been observed.
After reconstitution with water, Aurograb must be stored at 4° C. and should be used within 14 hours.
Saline for iv use is compatible with reconstituted Aurograb (at a 50:50 dilution).

EMRSA-15 [3] = assay type: in vivo, S. aureus
Experimental: Method: 60 female CD-I mice (22-24 g) were given S. aureus (a fresh clinical isolate of EMRSA-15) at a dose of 8×10^7 cfu in a 100 μl iv bolus.
All mice were terminated at 48 hours for culture of kidney, liver and spleen. Mice fatalities prior to the 48 hour cull were not subject to organ colony counts.

EMRSA-15 [4] = assay type: in vivo, S. aureus; remark: listed apart in the source
Experimental: Methods: 60 female CD-1 mice (22-24 g) were given 1×10^7 cfu of EMRSA-15 as a 100 μl iv bolus.
All mice were terminated at 48 hours for culture of kidney, liver and spleen.
Results: expressed as log cfu per gram of tissue, unless the majority of mice (>5) were cleared (ie organs were culture-negative). N/A=not applicable. (Table 7)

[5] = Group 5: Aurograb 2.0 mg/kg alone iv, 48 hours
[6] = Group 4: Aurograb 2.0 mg/kg alone iv, 48 hours
[7] = Group 5: Aurograb 0.2 mg/kg alone iv, 10 mice
[8] = Group 5: Aurograb 0.2 mg/kg alone iv, 48 hours

B1: Aurograb: human genetic recombinant antibody (scFv with histidine tag, SEQ ID NO: 2) binding GrfA, a staphylococcal ABC transporter protein (protein)
scFv: MAKVQLLQSATEVKKPGASVKVSCKAYGYTFTDYGITWVRQAPGQGLEWMGWISAYNGYTNYAQKFQDRITMTTDASTSTAYMELRSLRPDDTAVLYCARDREDASLLRDGHWGQGTLVTVSSGGGGSGGGGSGGGGSGGGGSETTLTQSPGTLSLSPGERATLSCRASQIVSSSYLAWYQQKPGQAPRLLIYGASSRATGIPDRFSGSGSGTDFTLTISKLEPEDFAVYYCQHYGSSSPWTSRPRDQSDIKRAAALEHHHHHH
modifications: histidine tag; human single chain (scFv) recombinant antibody
- FIC ([1]; EMRSA strain 1): 0.006
- MIC Alone ([1]; EMRSA strain 1): 125 mg/L
- MIC In combination ([1]; EMRSA strain 1): 0.75 mg/L
- FIC ([1]; EMRSA strain 1A): 0.05
- MIC Alone ([1]; EMRSA strain 1A): 250 mg/L
- MIC In combination ([1]; EMRSA strain 1A): 12.5 mg/L
- FIC ([1]; EMRSA strain 2): 0.006
- MIC Alone ([1]; EMRSA strain 2): 125 mg/L
- MIC In combination ([1]; EMRSA strain 2): 0.75 mg/L
- FIC ([1]; EMRSA strain 2A): 0.05
- MIC Alone ([1]; EMRSA strain 2A): 250 mg/L
- MIC In combination ([1]; EMRSA strain 2A): 12.5 mg/L
- FIC ([1]; EMRSA strain 3): 0.012
- MIC Alone ([1]; EMRSA strain 3): 250 mg/L
- MIC In combination ([1]; EMRSA strain 3): 3 mg/L
- FIC ([1]; EMRSA strain 4): 0.0026
- MIC Alone ([1]; EMRSA strain 4): 125 mg/L
- MIC In combination ([1]; EMRSA strain 4): 0.325 mg/L
- FIC ([1]; EMRSA strain 5): 0.001
- MIC Alone ([1]; EMRSA strain 5): 250 mg/L
- MIC In combination ([1]; EMRSA strain 5): 0.325 mg/L
- FIC ([1]; EMRSA strain 6): 0.0026
- MIC Alone ([1]; EMRSA strain 6): 125 mg/L
- MIC In combination ([1]; EMRSA strain 6): 0.325 mg/L
- FIC ([1]; EMRSA strain 7): 0.0026
- MIC Alone ([1]; EMRSA strain 7): 125 mg/L
- MIC In combination ([1]; EMRSA strain 7): 0.325 mg/L
- FIC ([1]; EMRSA strain 8): 0.0013
- MIC Alone ([1]; EMRSA strain 8): 250 mg/L
- MIC In combination ([1]; EMRSA strain 8): 0.325 mg/L
- FIC ([1]; EMRSA strain 8A): 0.05
- MIC Alone ([1]; EMRSA strain 8A): 250 mg/L
- MIC In combination ([1]; EMRSA strain 8A): 12.5 mg/L
- FIC ([1]; EMRSA strain 9): 0.006
- MIC Alone ([1]; EMRSA strain 9): 125 mg/L
- MIC In combination ([1]; EMRSA strain 9): 0.75 mg/L
- FIC ([1]; EMRSA strain 10): 0.012
- MIC Alone ([1]; EMRSA strain 10): 125 mg/L
- MIC In combination ([1]; EMRSA strain 10): 1.5 mg/L
- FIC ([1]; EMRSA strain 11): 0.006
- MIC Alone ([1]; EMRSA strain 11): 125 mg/L
- MIC In combination ([1]; EMRSA strain 11): 0.75 mg/L
- FIC ([1]; EMRSA strain 11A): 0.05
- MIC Alone ([1]; EMRSA strain 11A): 250 mg/L
- MIC In combination ([1]; EMRSA strain 11A): 12.5 mg/L
- FIC ([1]; EMRSA strain 12): 0.0013
- MIC Alone ([1]; EMRSA strain 12): 250 mg/L
- MIC In combination ([1]; EMRSA strain 12): 0.325 mg/L
- FIC ([1]; EMRSA strain 12A): 0.003
- MIC Alone ([1]; EMRSA strain 12A): 250 mg/L
- MIC In combination ([1]; EMRSA strain 12A): 0.75 mg/L
- FIC ([1]; EMRSA strain 13): 0.006
- MIC Alone ([1]; EMRSA strain 13): 250 mg/L
- MIC In combination ([1]; EMRSA strain 13): 1.5 mg/L
- FIC ([1]; EMRSA strain 14): 0.012
- MIC Alone ([1]; EMRSA strain 14): 125 mg/L
- MIC In combination ([1]; EMRSA strain 14): 1.5 mg/L
- FIC ([1]; EMRSA strain 15): 0.012
- MIC Alone ([1]; EMRSA strain 15): 125 mg/L
- MIC In combination ([1]; EMRSA strain 15): 1.5 mg/L
- FIC ([1]; EMRSA strain 15A): 0.006
- MIC Alone ([1]; EMRSA strain 15A): 250 mg/L
- MIC In combination ([1]; EMRSA strain 15A): 0.75 mg/L
- FIC ([1]; EMRSA strain 16): 0.012
- MIC Alone ([1]; EMRSA strain 16): 250 mg/L
- MIC In combination ([1]; EMRSA strain 16): 1.5 mg/L
- FIC ([1]; EMRSA strain 17): 0.006
- MIC Alone ([1]; EMRSA strain 17): 250 mg/L
- MIC In combination ([1]; EMRSA strain 17): 0.75 mg/L
- FIC ([1]; NARSA 1 (Hiramatsu)): 0.001
- MIC Alone ([1]; NARSA 1 (Hiramatsu)): 250 mg/L
- MIC In combination ([1]; NARSA 1 (Hiramatsu)): 0.325 mg/L
- FIC ([1]; NARSA 2 (Hiramatsu)): 0.001
- MIC Alone ([1]; NARSA 2 (Hiramatsu)): 250 mg/L
- MIC In combination ([1]; NARSA 2 (Hiramatsu)): 0.325 mg/L
- FIC ([1]; NARSA 12 (France)): 0.003
- MIC Alone ([1]; NARSA 12 (France)): 250 mg/L
- MIC In combination ([1]; NARSA 12 (France)): 0.75 mg/L
- FIC ([1]; NARSA 17 (New York)): 0.001
- MIC Alone ([1]; NARSA 17 (New York)): 250 mg/L
- MIC In combination ([1]; NARSA 17 (New York)): 0.325 mg/L
- FIC ([1]; NARSA 119 (Linezolid R)): 0.02
- MIC Alone ([1]; NARSA 119 (Linezolid R)): 125 mg/L
- MIC In combination ([1]; NARSA 119 (Linezolid R)): 3 mg/L
- FIC ([1]; NARSA 120 (Linezolid R)): 0.02
- MIC Alone ([1]; NARSA 120 (Linezolid R)): 125 mg/L
- MIC In combination ([1]; NARSA 120 (Linezolid R)): 3 mg/L
- FIC ([1]; NARSA 121 (Linezolid R)): 0.02
- MIC Alone ([1]; NARSA 121 (Linezolid R)): 125 mg/L
- MIC In combination ([1]; NARSA 121 (Linezolid R)): 3 mg/L
- Activity after reconstitution with water ([2]; left at room temperature): slowly deteriorate
- Change in activity after storage ([2]; lyophilised drug, 4° C., 3 months): No change
- Compatibility with saline for iv use ([2]; reconstituted Aurograb, 50:50 dilution): compatible
- Compatibility with 20% glucose and sodium bicarbonate buffer ([2]; reconstituted Aurograb, reduction in ELISA activity): less compatible
- Mortality (EMRSA-15 [3]; Aurograb alone 2.0 mg/kg, 10 mice, untreated group 7 deaths): 4 deaths
- Survivors at 24 h (n = 10) (EMRSA-15 [3]; Group 5: Aurograb 2.0 mg/kg alone iv, 8×10^7 cfu): 6
- Kidney Log cfu/g tissue (EMRSA-15 [3]; [5]): 7.87 ± 1 Log cfu/g tissue
- Liver Log cfu/g tissue (EMRSA-15 [3]; [5]): 5.18 ± 0.57 Log cfu/g tissue
- Spleen Log cfu/g tissue (EMRSA-15 [3]; [5]): 5.53 ± 2.74 Log cfu/g tissue
- Spleen, number of mice cleared (EMRSA-15 [4]; Group 4: Aurograb 2.0 mg/kg alone iv, 10 mice): 4
- Kidney Log cfu/g of tissue (EMRSA-15 [4]; [6]): 7.30 ± 1.26 Log cfu/g of tissue
- Spleen Log cfu/g of tissue (EMRSA-15 [4]; [6]): 3.54 ± 0.61 Log cfu/g of tissue
- Liver, number of mice cleared (EMRSA-15 [4]; [7]): 2
- Spleen, number of mice cleared (EMRSA-15 [4]; [7]): 3
- Kidney Log cfu/g of tissue (EMRSA-15 [4]; [8]): 7.50 ± 1.53 Log cfu/g of tissue
- Liver Log cfu/g of tissue (EMRSA-15 [4]; [8]): 4.28 ± 1.28 Log cfu/g of tissue
- Spleen Log cfu/g of tissue (EMRSA-15 [4]; [8]): 3.91 ± 0.87 Log cfu/g of tissue
